Experimental data: US20260103496A1, “NEUREGULIN AND USE THEREOF” (ZENSUN (SHANGHAI) SCIENCE & TECHNOLOGY, CO., LTD., priority 2022, published 2026)
“And” between values parts separate entries of the source, which are not always exact repeats. Equal entries are not always repeated.

Tested on: subjects with chronic systolic heart failure
Assay: Phase III clinical trial of recombinant human neuregulin for injection on cardiac function (LVESVI/LVEDVI), with enriched-subgroup analyses
Format: in vivo
Conditions: for average improvement in LVEDVI from baseline, enriched population compared with overall (general) population / average improvement in LVESVI from baseline, enriched population compared with overall (general) population: Day 30 after the administration
Procedure: Example 1: A Multi-Center, Randomized, Double-Blind, Placebo-Controlled and Standard Treatment-Based Phase III Clinical Trial to Evaluate the Effect of Recombinant Human Neuregulin for Injection on Cardiac Function of Subjects with Chronic Systolic Heart Failure
In this example, a multi-center, randomized, double-blind, placebo-controlled study was conducted based on standard treatment to evaluate the effects of recombinant human neuregulin for injection on the cardiac function of male patients with NT-proBNP ≤1700 pg/ml and female patients with NT-proBNP ≤4000 pg/ml, and to confirm its efficacy and safety.
A multicenter, randomized, double-blind, placebo-controlled study was conducted based on standard treatment.
Experimental group: recombinant human neuregulin for injection+standard basic treatment drugs (β receptor blocker, ACEI/ARB/ARNI, aldosterone receptor antagonist, etc.).
• 2.1 Age is 18-75 years old, regardless of gender; • 2.2 heart failure has been definitely diagnosed for 3 months or more, and the condition is stable at present, with NYHA II-III grade and left ventricular ejection fraction (LVEF)≤40%; • 2.3 male Nt-proBNP ≤1700 pg/ml, female Nt-proBNP ≤4000 pg/ml; • 2.4 After receiving standard basic treatment drugs for heart failure for 3 months, the target dose or maximum tolerated dose has been reached for more than 1 month, or the dose has not been changed within 1 month; • 2.5 Understand and sign the informed consent form.
Specification: Neucardin, 61 amino acids constitute EGF-like functional domain of Neuegulin-1β2 isomer, with molecular weight of 7054 Dal (1 μg=0.14 nmol); 250 μg/piece. • Dosage Form: Powder Injection • Administration Route: Intravenous Drip • Appearance: freeze-dried block or powder.
5. Data Collection: Evaluating the Effectiveness and Safety During the Screening Period, 30 Days and 90 Days after Administration.
This example was carried out in many clinical research centers in China at the same time. 154 cases were actually enrolled, 78 cases in the Neuregulin experimental group and 76 cases in the placebo group. A total of 147 cases (73 cases in the experimental group and 74 cases in the placebo group) finally achieved the main end points.
Through statistical analysis of the experimental results from Example 1, the inventors investigated, in this Example, the response rate of Neuregulin in improving LVESVI (by more than 13 mL/m^2) in an enriched population. The enriched population refers to patients with a baseline LVESVI ≥135 mL/m^2, accounting for approximately 41% of the total studied population.
Through statistical analysis of the results from Example 1, the inventors investigated, in this Example, the response rate of Neuregulin in improving both LVESVI and LVEDVI (both exceeding 20 mL/m^2) in individual patients of the enriched population.

[1] = 30 days after administration, P<0.05 vs placebo
[2] = baseline LVESVI ≥135 mL/m^2, listed as neuregulin
[3] = enriched population, baseline LVESVI ≥135 mL/m^2
[4] = individual subject, Day 30 vs baseline, FAS

B1: Neuregulin: 61 amino acids constitute EGF-like functional domain of Neuegulin-1β2 isomer, molecular weight 7054 Dal; SEQ ID NO: 1 (protein)
chain: SHLVKCAEKEKTFCVNGGECFMVKDLSNPSRYLCKCPNEFTGDRCQNYVMASFYKAEELYQ
- patients with LVESVI reduction (30-day data, compared with baseline): 63%
- ΔLVESVI (30 D): −5.62 ± 18.99 ml/m^2
- ΔLVESVI (90 D, P=0.0128): −5.23 ± 17.12 ml/m^2
- improvement rate: LVESVI decreased by ≥5 ml/m^2 compared with the baseline (30 days after administration): 45.2%
- improvement rate: LVESVI decreased by ≥10 ml/m^2 compared with the baseline (30 days after administration): 34.2%
- improvement rate: LVESVI decreased by ≥15 ml/m^2 compared with the baseline (30 days after administration): 23.3%
- improvement rate: LVESVI decreased by ≥30 ml/m^2 compared with the baseline (30 days after administration): 8.2%
- improvement rate: LVESVI decreased by ≥35 ml/m^2 compared with the baseline (30 days after administration): 5.5%
- improvement rate: LVESVI decreased by ≥40 ml/m^2 compared with the baseline (30 days after administration): 2.7%
- improvement rate: LVESVI decreased by ≥20 ml/m^2 compared with the baseline [1]: 17.8%
- improvement rate: LVESVI decreased by ≥25 ml/m^2 compared with the baseline [1]: 15.1%
- Increase in LVEDVI at Day 30 compared with the baseline was more than or equal to 5 ml/m^2, n/N(%) (Day 30, FAS): 19/73(26.0) %
- Increase in LVEDVI at Day 30 compared with the baseline was more than or equal to 10 ml/m^2, n/N(%) (Day 30, FAS): 14/73(19.2) %
- Increase in LVEDVI at Day 30 compared with the baseline was more than or equal to 15 ml/m^2, n/N(%) (Day 30, FAS): 9/73(12.3) %
- Increase in LVEDVI at Day 30 compared with the baseline was more than or equal to 20 ml/m^2, n/N(%) (Day 30, FAS): 3/73(4.1) %
- Increase in LVEDVI at Day 30 compared with the baseline was more than or equal to 25 ml/m^2, n/N(%) (Day 30, FAS): 3/73(4.1) %
- Increase in LVEDVI at Day 30 compared with the baseline was more than or equal to 30 ml/m^2, n/N(%) (Day 30, FAS): 1/73(1.4) %
- Increase in LVESVI at Day 30 compared with the baseline was more than or equal to 5 ml/m^2, n/N(%) (Day 30, FAS): 15/73(20.5) %
- Increase in LVESVI at Day 30 compared with the baseline was more than or equal to 10 ml/m^2, n/N(%) (Day 30, FAS): 10/73(13.7) %
- Increase in LVESVI at Day 30 compared with the baseline was more than or equal to 15 ml/m^2, n/N(%) (Day 30, FAS): 5/73(6.8) %
- Increase in LVESVI at Day 30 compared with the baseline was more than or equal to 20 ml/m^2, n/N(%) (Day 30, FAS): 3/73(4.1) %
- Increase in LVESVI at Day 30 compared with the baseline was more than or equal to 25 ml/m^2, n/N(%) (Day 30, FAS): 1/73(1.4) %
- Increase in LVESVI at Day 30 compared with the baseline was more than or equal to 30 ml/m^2, n/N(%) (Day 30, FAS): 1/73(1.4) %
- Reduction in LVEDVI at Day 30 compared with the baseline was more than or equal to 5 ml/m^2, n/N(%) (Day 30, FAS): 43.8% and 32/73(43.8) %
- Reduction in LVEDVI at Day 30 compared with the baseline was more than or equal to 10 ml/m^2, n/N(%) (Day 30, FAS): 30.1% and 22/73(30.1) %
- Reduction in LVEDVI at Day 30 compared with the baseline was more than or equal to 15 ml/m^2, n/N(%) (Day 30, FAS): 21.9% and 16/73(21.9) %
- Reduction in LVEDVI at Day 30 compared with the baseline was more than or equal to 20 ml/m^2, n/N(%) (Day 30, FAS): 17.8% and 13/73(17.8) %
- Reduction in LVEDVI at Day 30 compared with the baseline was more than or equal to 25 ml/m^2, n/N(%) (Day 30, FAS): 16.4% and 12/73(16.4) %
- Reduction in LVEDVI at Day 30 compared with the baseline was more than or equal to 35 ml/m^2, n/N(%) (Day 30, FAS): 6.8% and 5/73(6.8) %
- Reduction in LVEDVI at Day 30 compared with the baseline was more than or equal to 40 ml/m^2, n/N(%) (Day 30, FAS): 5.5% and 4/73(5.5) %
- Reduction in LVEDVI at Day 30 compared with the baseline was more than or equal to 30 ml/m^2, n/N(%) (Day 30, FAS, P value of 0.046 vs placebo): 13.7% and 10/73(13.7) %
- LVESVI improved compared with that before administration (Day 30 after administration, P=0.0137): 5.62 ml/m^2
- average improvement in LVEDVI from baseline, enriched population compared with overall (general) population (baseline LVESVI ≥135 mL/m^2): greater average improvement in LVEDVI
- average improvement in LVESVI from baseline, enriched population compared with overall (general) population (baseline LVESVI ≥135 mL/m^2): greater average improvement in LVESVI
- average improvement in LVEDVI from baseline, enriched population compared with overall (general) population [2]: better average improvements in LVESVI or LVEDVI than the neuregulin treatment group in the general population
- average improvement in LVESVI from baseline, enriched population compared with overall (general) population [2]: better average improvements in LVESVI or LVEDVI than the neuregulin treatment group in the general population
- LVESVI and LVEDVI: Simultaneous increase by more than or equal to 5 ml/m^2, n/N(%) (Day 30 vs baseline, FAS): 13/73(17.8) %
- LVESVI and LVEDVI: Simultaneous increase by more than or equal to 10 ml/m^2, n/N(%) (Day 30 vs baseline, FAS): 9/73(12.3) %
- LVESVI and LVEDVI: Simultaneous increase by more than or equal to 15 ml/m^2, n/N(%) (Day 30 vs baseline, FAS): 3/73(4.1) %
- LVESVI and LVEDVI: Simultaneous increase by more than or equal to 20 ml/m^2, n/N(%) (Day 30 vs baseline, FAS): 2/73(2.7) %
- LVESVI and LVEDVI: Simultaneous increase by more than or equal to 25 ml/m^2, n/N(%) (Day 30 vs baseline, FAS): 1/73(1.4) %
- LVESVI and LVEDVI: Simultaneous increase by more than or equal to 30 ml/m^2, n/N(%) (Day 30 vs baseline, FAS): 1/73(1.4) %
- persistence of the LVESVI improvement effect (after 10-day administration, P=0.0128 at Day 90): could be maintained until Day 90 after the administration
- response rate for a substantial improvement in LVESVI (a reduction of more than 13 mL/m^2) [3]: 50%
- response rate for both LVESVI and LVEDVI decreased by more than 20 mL/m^2, compared with placebo group [3]: significantly higher than that in the placebo group
- response rate for both LVESVI and LVEDVI reduced by ≥20 mL/m^2, enriched population compared with overall (general) population [3]: higher than that in the overall population
- response rate for simultaneous improvements in both LVESVI and LVEDVI greater than 20 mL/m^2 (enriched population, baseline LVESVI ≥135 mL/m^2, individual subjects): 26.5%
- response rate for both LVESVI and LVEDVI reduced by ≥20 mL/m^2, enriched population compared with overall (general) population (enriched population, baseline LVESVI ≥135 mL/m^2, listed as neuregulin): better response rate
- LVESVI and LVEDVI: Simultaneous reduction by more than or equal to 5 ml/m^2, n/N(%) [4]: 37.0% and 27/73(37.0) %
- LVESVI and LVEDVI: Simultaneous reduction by more than or equal to 10 ml/m^2, n/N(%) [4]: 23.3% and 17/73(23.3) %
- LVESVI and LVEDVI: Simultaneous reduction by more than or equal to 15 ml/m^2, n/N(%) [4]: 19.2% and 14/73(19.2) %
- LVESVI and LVEDVI: Simultaneous reduction by more than or equal to 25 ml/m^2, n/N(%) [4]: 12.3% and 9/73(12.3) %
- LVESVI and LVEDVI: Simultaneous reduction by more than or equal to 30 ml/m^2, n/N(%) [4]: 6.8% and 5/73(6.8) %
- LVESVI and LVEDVI: Simultaneous reduction by more than or equal to 35 ml/m^2, n/N(%) [4]: 4.1% and 3/73(4.1) %
- LVESVI and LVEDVI: Simultaneous reduction by more than or equal to 40 ml/m^2, n/N(%) [4]: 1.4% and 1/73(1.4) %
- LVESVI and LVEDVI: Simultaneous reduction by more than or equal to 20 ml/m^2, n/N(%) (individual subject, Day 30 vs baseline, FAS, p-value 0.0048 vs placebo): 16.4% and 12/73(16.4) %
